Substrate in the series: CC(C)C[C@H](NC(=O)[C@@H](NC(=O)[C@H](CCCNC(=N)N)NC(=O)[C@H](C)NC(=O)[C@@H](N)CCCNC(=N)N)[C@@H](C)O)C(=O)N[C@@H](CO)C(=O)N[C@@H](Cc1ccccc1)C(=O)N[C@@H](C)C(=O)N[C@@H](CCC(=O)O)C(=O)N1CCC[C@H]1C(=O)NCC(=O)O
Description: Kinetic parameters for peptide phosphorylation, radioactive filter-binding assay. To be noted: other: MAPKAP-K3; Standard Substrate = …; 30.0 °C. In kind it is biochemical, human. An excerpt: Apart from the AMP-activated protein kinase (AMPK, a gift from Drs S. Hawley and D. G. Hardie), cGMP-dependent protein kinase (PKG, a generous gift from Drs Susan Lohmann and Ulrich Walter, University of Wurzburg, Germany) and the catalytic subunit of cyclic AMP-dependent protein kinase (PKA, a gift from Dr C. Smythe), which were isolated from rat liver, bovine lung and bovine heart, respectively, all other protein kinases were expressed as either GST-fusion or His-tagged proteins (by a person, a person, Dr A. Paterson or a person, in this Division). The expressed proteins all corresponded to the human sequences apart from the rat Rho-dependent protein kinase (ROCK-II) and rat mitogen-activated protein kinase (MAPK) activated kinase-1a (MAPKAP-K1a, also called RSK). […]
All protein kinase assays were linear with respect to time. […] All papers were subsequently washed a further three times in phosphoric acid, once in acetone, then dried and counted for radioactivity. […] The plates were then washed six times (five min per wash) in PBS, 0.1% Tween 20 and binding of the phospho-specific antibody detected by incubating the plates with peroxidase-conjugated anti-sheep antibodies (Pierce). […] Signals were quantitated on LAS-1000IR software (FujiFilm). […]

B1: MAPKAP-K3 (Homo sapiens) (protein)
chain: MDGETAEEQGGPVPPPVAPGGPGLGGAPGGRREPKKYAVTDDYQLSKQVLGLGVNGKVLECFHRRTGQKCALKLLYDSPKARQEVDHHWQASGGPHIVCILDVYENMHHGKRCLLIIMECMEGGELFSRIQERGDQAFTEREAAEIMRDIGTAIQFLHSHNIAHRDVKPENLLYTSKEKDAVLKLTDFGFAKETTQNALQTPCYTPYYVAPEVLGPEKYDKSCDMWSLGVIMYILLCGFPPFYSNTGQAISPGMKRRIRLGQYGFPNPEWSEVSEDAKQLIRLLLKTDPTERLTITQFMNHPWINQSMVVPQTPLHTARVLQEDKDHWDEVKEEMTSALATMRVDYDQVKIKDLKTSNNRLLNKRRKKQAGSSSASQGCNNQ
notes: GST; made in house; host or cells: E. coli
For orientation: Km means the concentration of substrate that gives half-maximal velocity. Turning to B1, the Km came to 30 µM.

The values are drawn from patent US7727950B2, “Methods and reagents for assaying protein kinase activity” (The University of Dundee, priority 2002, dated 2010).
